PMC4474532

Molecular target: PERK luminal domain W165A (UniProt Q9NZJ5)
Test: sedimentation velocity AUC

PERK luminal domain W165A, sequence (Q9NZJ5 105-403 W164A/Q166R): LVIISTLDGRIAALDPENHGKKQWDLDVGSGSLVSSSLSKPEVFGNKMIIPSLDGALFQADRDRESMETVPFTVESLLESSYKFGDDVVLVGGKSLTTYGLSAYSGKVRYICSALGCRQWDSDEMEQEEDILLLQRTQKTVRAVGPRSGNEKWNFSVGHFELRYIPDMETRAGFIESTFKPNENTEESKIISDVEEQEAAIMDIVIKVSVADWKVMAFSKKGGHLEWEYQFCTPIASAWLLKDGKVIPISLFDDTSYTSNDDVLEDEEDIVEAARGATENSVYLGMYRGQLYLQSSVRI

Substance “human PERK luminal domain (residues 105–403) (from UniProt Q9NZJ5) W165A” has an other: % (change in tetramer against wild-type) (parent: 0) of -23% and an other: tetramer (relative to dimer = 1) (parent: 0.73) of 0.56.
